The values that follow come from US20230414712A1, “PHARMACEUTICAL COMPOSITION FOR PREVENTING OR TREATING CANCER COMPRISING RECOMBINANT STABILIZED GALECTIN 9 PROTEIN” (GBIOLOGICS INC., priority 2020, published 2023).

A short description of series [1]: body weight changes in pancreatic cancer-induced mouse model. In kind it is in vivo, mice. To be noted: intraperitoneal, 50 days, FIG. 4. The protocol: (§1) To investigate the anticancer activity of the recombinant stabilized galectin-9 protein having the amino acid sequence SEQ ID NO: 1, KRAS gene mutant pancreatic cancer cell line MIA PaCa-2 cells were transplanted and grown for two weeks to form pancreatic tumor tissue subcutaneously in mice, and the mice were then administered with the recombinant protein, and changes in body weight were monitored.
(§2) Specifically, the experiments were conducted in accordance with the Guide for the Care and Use of Laboratory Animals (NRC), and the mice were managed accordingly. After collecting mice with an average pancreatic cancer size of 200 nm 3, they were randomly classified into 5 group.
(§3) The experimental groups were classified into five groups (5 mice per group) as follows: control group (PBS), low-dose recombinant stabilized galectin-9 protein administration group (seal-9 0.5 mg/kg), high-dose recombinant stabilized galectin-9 protein administration group (seal-9 5 mg/kg), gemcitabine group (Gemcitabine 50 mg/kg), and combination of seal-9 and gemcitabine (seal-9 5 mg/kg+Gemcitabine 50 mg/kg). The mice were administered with seal-9 the given concentrations twice a week and/or gemcitabine once a week by intraperitoneal injection for 50 days, while monitoring changes in body weight (FIG. 4).

Series [2] deals with KRAS wild-type or mutant colorectal, pancreatic, lung cancer and ovarian cancer cells (HT-29, DLD-1, HCT-116, SW620, Bx-pc3, L3.6pl, AsPC-1, H226, A549 …). Description: SRB (sulforhodamine B) cell growth assay in cancer cell lines. In kind it is cell-based. To be noted: 3.2, 16, 80, 400, 2000 or 10,000 nM, 72 hours; compared to negative control NIH3T3 cells; FIG. 1A. The protocol: To investigate the anticancer activity of the recombinant stabilized galectin-9 protein having the amino acid sequence of SEQ ID NO: 1, cell growth and apoptosis were observed after treatment of the recombinant protein in cancer cell lines having a KRAS wild type or KRAS gene mutation.
Specifically, to investigate the anticancer activity of the recombinant stabilized galectin-9 protein having the amino acid sequence of SEQ ID NO: 1, the protein was treated on cancer cell lines with KRAS wild-type or KRAS gene mutation, and the following cell lines were used: HT-29 for KRAS wild-type pancreatic cancer, DLD-1, HCT-116, and SW620 for KRAS gene-mutated colon cancer, Bx-pc3 for KRAS wild-type pancreatic cancer, L3.6pl and AsPC-1 for KRAS gene-mutated pancreatic cancer, H226 for KRAS wild-type lung cancer, A549 for KRAS gene-mutated lung cancer, SKOV3ip1 for KRAS wild-type ovarian cancer, and SKOV3 for KRAS gene-mutated ovarian cancer, and the cells were seeded at 5×10^3 cells per well in a 96-well plate and cultured at 37° C. for one day, and then the recombinant protein was treated with concentrations of 3.2, 16, 80, 400, 2000, or 10,000 nM per well, and cultured for 72 hours. After 72 hours of incubation, the cell growth was confirmed using the SRB (sulforhodamine B) assay kit (Abcam, US) according to the manufacturer's instructions. […]

In series [3] the test system is KRAS gene mutated pancreatic cancer (MIA PaCa-2) mouse model. Description: survival rate in pancreatic cancer-induced mouse model. The class given is in vivo, mice. To be noted: 50 days, tumor size of 1700 mm3 or more considered as time of death, FIG. 6. As for the experimental part:
as §1, §2, §3
In this case, a pancreatic cancer tissue size of 1700 mm3 or more was considered as the time of death.

The test system of series [4] is DLD-1 cells. The experiment in a line: Annexin-APC and 7-AAD apoptosis analysis by flow cytometer. In kind it is cell-based. To be noted: 1,000 nM, 24 or 48 hours; FIG. 1B. As for the experimental part:
In addition, DLD-1 cells, a colorectal cancer cell line with KRAS gene mutation, were seeded at a density of 1×10^5 cells per well in a 6-well plates, cultured for 1 day at 37° C. and the recombinant protein from <Preparation Example 1> was then added to each well at a concentration of 1,000 nM, and the cells were further cultured for either 24 or 48 hours. After washing the cultured cells twice with cold PBD, the cells were stained using Annexin-APC and 7-AAD apoptosis kit (Biolegend, US) according to the manufacturer's instructions, and apoptosis was analyzed using a flow cytometer (CytoFLEX, Beckmancoulter) (FIG. 1B).
Background: Flow cytometry measures light scatter and fluorescence of single cells or particles in a stream.

Series [5] concerns KRAS gene mutant pancreatic cancer (MIA PaCa-2) mouse model. The experiment in a line: pancreatic cancer tissue size (MRI) in pancreatic cancer-induced mouse model. The class given is in vivo, mice. To be noted: 50 days, FIG. 5; for size of pancreatic cancer tissue compared to the control group: intraperitoneal. As for the experimental part: as §1, §2, §3
To investigate the anticancer activity of the recombinant stabilized galectin-9 protein having the amino acid sequence of SEQ ID NO: 1, the KRAS gene mutant pancreatic cancer (MIA PaCa-2) mouse model was established by using the same method described in Example <2-1> above, and seal-9 and/or gemcitabine were administered into the mice for 50 days and the change in the size of the pancreatic cancer tissue was evaluated using magnetic resonance imaging (MRI) (FIG. 5).

Series [6] deals with DLD-1 cells. Description: colony formation assay. In kind it is cell-based. The note with it: 0, 50, 100, 250, 500, 1000 nM, 10 days, 3% v/v Matrigel; FIG. 2. The protocol: To investigate the anti-cancer activity of the recombinant stabilized galectin-9 protein having the amino acid sequence of SEQ ID NO: 1, the proliferation of cancer cells by colony formation assay was analyzed by treating KRAS mutant colorectal cancer cell lines with the recombinant protein.
Specifically, DLD-1 cells, a colorectal cancer cell line with KRAS gene mutation, were seeded in 6-well plates at 5×10^3 cells per well in a medium containing 3% v/v Matrigel, and then treated with the recombinant protein from <Preparation Example 1> at concentrations of 0, 50, 100, 250, 500, 1000 nM and incubated for 10 days. Then, after washing with phosphate-buffered saline, colonies were stained with a solution of 0.05% crystal violet, 1% formaldehyde, and 1% methanol in phosphate-buffered saline for 20 minutes at room temperature. The plate was then washing with distilled water and dried at room temperature for 16 hours. The number of colonies was measured by capturing images of the stained and dried plates and analyzing the images (FIG. 2).

Setting [7] is: high-dose, seal-9 5 mg/kg twice a week.
Where [8] appears, read: low-dose, seal-9 0.5 mg/kg twice a week.

B1: seal-9: recombinant stabilized galectin-9 protein of SEQ ID NO: 1; linker region deleted, CCRD positions 1 to 10 deleted, Ala at position 13 substituted with Pro (protein)
chain: MAFSGSQAPYLSPAVPFSGTIQGGLQDGLQITVNGTVLSSSGTRFAVNFQTGFSGNDIAFHFNPRFEDGGYVVCNTRQNGSWGPEERKTHMPFQKGMPFDLCFLVQSSDFKVMVNGILFVQYFHRVPFHRVDTISVNGSVQLSYISFQHPPYPMPFITTILGGLYPSKSILLSGTVLPSAQRFHINLCSGNHIAFHLNPRFDENAVVRNTQIDNSWGSEERSLPRKMPFVRGQSFSVWILCEAHCLKVAVDGQHLFEYYHRLRNLPTINRLEVGGDIQLTHVQT
modifications: sGal-9
notes: linker region deleted, CCRD positions 1 to 10 deleted, Ala at position 13 substituted with Pro
Regarding B1, the “changes in body weight” value in series [1] (setting [7]) and in series [1] (setting [8]) was “no significant changes in body weight” in each case. Also, the cell growth result in series [2] was “inhibited cell growth”. Further, the survival rate result was “superior survival rates” in series [3] (high-dose, seal-9 5 mg/kg) and “superior survival rates” in series [3] (low-dose, seal-9 0.5 mg/kg). Further, the apoptosis result in the series with DLD-1 cells [4] is given as “induced apoptosis”. The “size of pancreatic cancer tissue compared to the control group” value in series [5] (setting [7]) and in series [5] (setting [8]) was “decreased significantly” throughout. The “size of pancreatic cancer tissue, seal-9 compared with conventional chemotherapy” value in series [5] (seal-9 0.5 or 5 mg/kg vs gemcitabine 50 mg/kg) is “superior effect at lower doses than conventional chemotherapy”. Further, in the series with DLD-1 cells [6], the “colony formation ability / proliferation of cancer cells” value was “inhibited the proliferation of cancer cells in a concentration-dependent manner”.
